Measured values taken from patent US20240417436A1 (BRIGHT PEAK THERAPEUTICS, published 2024).
[ ]: non-standard residue; d: D form. Ygp = O-(8x polyethylene glycol-amino)-tyrosine; Yn3 = O-(9x polyethylene glycol-azido)-tyrosine; hSer = N[C@@H](CCO)C(=O)O; Nle = CCCC[C@H](N)C(=O)O

T1: IL-2 receptor βγ complex on pan T cells (human, UniProt P14784 27-551; P31785 23-369)
T1 sequence (looked up) 1: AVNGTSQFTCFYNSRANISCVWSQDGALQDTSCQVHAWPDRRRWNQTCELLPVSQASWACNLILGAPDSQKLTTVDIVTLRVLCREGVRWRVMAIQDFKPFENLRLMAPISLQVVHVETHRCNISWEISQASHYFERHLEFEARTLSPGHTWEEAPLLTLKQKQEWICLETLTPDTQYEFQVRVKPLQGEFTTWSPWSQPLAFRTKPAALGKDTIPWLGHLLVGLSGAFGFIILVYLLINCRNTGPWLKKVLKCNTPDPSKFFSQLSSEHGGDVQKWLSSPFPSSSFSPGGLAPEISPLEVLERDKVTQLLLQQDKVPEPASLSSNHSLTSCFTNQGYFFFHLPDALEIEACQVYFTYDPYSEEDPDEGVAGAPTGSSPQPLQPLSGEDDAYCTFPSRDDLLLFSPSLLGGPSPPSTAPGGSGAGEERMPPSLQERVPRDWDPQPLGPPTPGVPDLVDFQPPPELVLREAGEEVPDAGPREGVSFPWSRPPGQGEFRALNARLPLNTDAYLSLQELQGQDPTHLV
T1 sequence (looked up) 2: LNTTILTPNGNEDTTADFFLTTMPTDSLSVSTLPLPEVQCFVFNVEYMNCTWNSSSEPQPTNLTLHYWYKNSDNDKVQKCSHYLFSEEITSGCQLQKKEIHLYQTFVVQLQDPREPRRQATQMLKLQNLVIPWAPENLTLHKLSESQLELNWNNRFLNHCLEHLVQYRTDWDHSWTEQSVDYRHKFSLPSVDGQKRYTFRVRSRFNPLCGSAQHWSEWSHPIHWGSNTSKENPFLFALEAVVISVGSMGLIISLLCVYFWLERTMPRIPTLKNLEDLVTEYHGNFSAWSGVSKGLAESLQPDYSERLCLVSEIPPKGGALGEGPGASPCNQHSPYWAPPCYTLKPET


What follows are binders tested against T1, IL-2 receptor βγ complex on pan T cells (assay: cell-based or functional assay).

| Binder | Average EC50, pSTAT5 assay in pan T cells, MMP2 cleaved molecule | Average EC50, pSTAT5 assay in pan T cells, intact molecule |
| --- | --- | --- |
| CMP-146 (ligand, not fully specified (residue 11); ends and bridges not checked; also: cleavable moiety on Lys11 side chain, structure not given here) APTSSSTKKTKLQLEHLLLDLQ[Nle]ILNGINNYKNPKLTR[Nle]L[hSer][Yn3]KF[Ygp][Nle]PKKATELKHLQCLEEELKPLEEVL[hSer]LAQSKNFHLRPRDLISNINVIVLELKGSETTF[hSer]CEYADETATIVEFLNRWITFSQSIISTLT | – | 4.29 nM |
| CMP-146, MMP2 cleaved (ligand, not fully specified (residue 11); ends and bridges not checked; also: MMP2-cut remnant of cleavable moiety on Lys11 side chain, not given here) APTSSSTKKTKLQLEHLLLDLQ[Nle]ILNGINNYKNPKLTR[Nle]L[hSer][Yn3]KF[Ygp][Nle]PKKATELKHLQCLEEELKPLEEVL[hSer]LAQSKNFHLRPRDLISNINVIVLELKGSETTF[hSer]CEYADETATIVEFLNRWITFSQSIISTLT | 0.92 nM | – |
| CMP-142, MMP2 cleaved (ligand, not fully specified (residue 23); ends and bridges not checked; also: MMP2-cut remnant of cleavable moiety on Lys23 side chain, not given here) APTSSSTKKTQLQLEHLLLDLQKILNGINNYKNPKLTR[Nle]L[hSer][Yn3]KF[Ygp][Nle]PKKATELKHLQCLEEELKPLEEVL[hSer]LAQSKNFHLRPRDLISNINVIVLELKGSETTF[hSer]CEYADETATIVEFLNRWITFSQSIISTLT | 0.56 nM | – |
| CMP-147 (ligand, not fully specified (residue 13); ends and bridges not checked; also: cleavable moiety on Lys13 side chain, structure not given here) APTSSSTKKTQLKLEHLLLDLQ[Nle]ILNGINNYKNPKLTR[Nle]L[hSer][Yn3]KF[Ygp][Nle]PKKATELKHLQCLEEELKPLEEVL[hSer]LAQSKNFHLRPRDLISNINVIVLELKGSETTF[hSer]CEYADETATIVEFLNRWITFSQSIISTLT | – | 3.86 nM |
| CMP-145, MMP2 cleaved (ligand, not fully specified (residue 23, bridges); also: Lys23 side chain bears KKPLGLAG (branched PEG) peptide cut by MMP2, remnants stay attached, cut site not given here) APTSSSTKKTQLQLEHLLLDLQKILNGINNYKNPKLTR[Nle]L[hSer][Yn3]KF[Ygp][Nle]PKKATELKHLQCLEEELKPLEEVL[hSer]LAQSKNFHLRPRDLISNINVIVLELKGSETTF[hSer]CEYADETATIVEFLNRWITFSQSIISTLT | 1.43 nM | – |
| CMP-143, MMP2 cleaved (ligand, not fully specified (residue 23); ends and bridges not checked; also: MMP2-cut remnant of cleavable moiety on Lys23 side chain, not given here) APTSSSTKKTQLQLEHLLLDLQKILNGINNYKNPKLTR[Nle]L[hSer][Yn3]KF[Ygp][Nle]PKKATELKHLQCLEEELKPLEEVL[hSer]LAQSKNFHLRPRDLISNINVIVLELKGSETTF[hSer]CEYADETATIVEFLNRWITFSQSIISTLT | 1.99 nM | – |
| CMP-147, MMP2 cleaved (ligand, not fully specified (residue 13); ends and bridges not checked; also: MMP2-cut remnant of cleavable moiety on Lys13 side chain, not given here) APTSSSTKKTQLKLEHLLLDLQ[Nle]ILNGINNYKNPKLTR[Nle]L[hSer][Yn3]KF[Ygp][Nle]PKKATELKHLQCLEEELKPLEEVL[hSer]LAQSKNFHLRPRDLISNINVIVLELKGSETTF[hSer]CEYADETATIVEFLNRWITFSQSIISTLT | 1.29 nM | – |
| CMP-148 (ligand, not fully specified (residue 15); ends and bridges not checked; also: cleavable moiety on Lys15 side chain, structure not given here) APTSSSTKKTQLQLKHLLLDLQ[Nle]ILNGINNYKNPKLTR[Nle]L[hSer][Yn3]KF[Ygp][Nle]PKKATELKHLQCLEEELKPLEEVL[hSer]LAQSKNFHLRPRDLISNINVIVLELKGSETTF[hSer]CEYADETATIVEFLNRWITFSQSIISTLT | – | 3.57 nM |
| CMP-144, MMP2 cleaved (ligand, not fully specified (residue 23); ends and bridges not checked; also: MMP2-cut remnant of cleavable moiety on Lys23 side chain, not given here) APTSSSTKKTQLQLEHLLLDLQKILNGINNYKNPKLTR[Nle]L[hSer][Yn3]KF[Ygp][Nle]PKKATELKHLQCLEEELKPLEEVL[hSer]LAQSKNFHLRPRDLISNINVIVLELKGSETTF[hSer]CEYADETATIVEFLNRWITFSQSIISTLT | 0.63 nM | – |

Other lines, results leading:

| Average EC50, pSTAT5 assay in pan T cells, MMP2 cleaved molecule | Average EC50, pSTAT5 assay in pan T cells, intact molecule | Binder |
| --- | --- | --- |
| 9.56 nM | – | CMP-149, MMP2 cleaved (ligand, not fully specified (residue 19); ends and bridges not checked; also: MMP2-cut remnant of cleavable moiety on Lys19 side chain, not given here) APTSSSTKKTQLQLEHLLKDLQ[Nle]ILNGINNYKNPKLTR[Nle]L[hSer][Yn3]KF[Ygp][Nle]PKKATELKHLQCLEEELKPLEEVL[hSer]LAQSKNFHLRPRDLISNINVIVLELKGSETTF[hSer]CEYADETATIVEFLNRWITFSQSIISTLT |
| 0.45 nM | – | CMP-150, MMP2 cleaved (ligand, also: K22 side chain bears remnant of cleavable peptide after MMP2 cut, cut site not given here) APTSSSTKKTQLQLEHLLLDLK[Nle]ILNGINNYKNPKLTR[Nle]L[hSer][Yn3]KF[Ygp][Nle]PKKATELKHLQCLEEELKPLEEVL[hSer]LAQSKNFHLRPRDLISNINVIVLELKGSETTF[hSer]CEYADETATIVEFLNRWITFSQSIISTLT |
| – | 46.7 nM | CMP-149 (ligand, not fully specified (residue 19); ends and bridges not checked; also: cleavable moiety on Lys19 side chain, structure not given here) APTSSSTKKTQLQLEHLLKDLQ[Nle]ILNGINNYKNPKLTR[Nle]L[hSer][Yn3]KF[Ygp][Nle]PKKATELKHLQCLEEELKPLEEVL[hSer]LAQSKNFHLRPRDLISNINVIVLELKGSETTF[hSer]CEYADETATIVEFLNRWITFSQSIISTLT |
| – | 6.38 nM | CMP-150 (ligand, not fully specified (residue 22); ends and bridges not checked; also: cleavable moiety on Lys22 side chain, structure not given here) APTSSSTKKTQLQLEHLLLDLK[Nle]ILNGINNYKNPKLTR[Nle]L[hSer][Yn3]KF[Ygp][Nle]PKKATELKHLQCLEEELKPLEEVL[hSer]LAQSKNFHLRPRDLISNINVIVLELKGSETTF[hSer]CEYADETATIVEFLNRWITFSQSIISTLT |
| 0.95 nM | – | CMP-148, MMP2 cleaved (ligand, not fully specified (residue 15); ends and bridges not checked; also: MMP2-cut remnant of cleavable moiety on Lys15 side chain, not given here) APTSSSTKKTQLQLKHLLLDLQ[Nle]ILNGINNYKNPKLTR[Nle]L[hSer][Yn3]KF[Ygp][Nle]PKKATELKHLQCLEEELKPLEEVL[hSer]LAQSKNFHLRPRDLISNINVIVLELKGSETTF[hSer]CEYADETATIVEFLNRWITFSQSIISTLT |

Molecular target: T1, IL-2 receptor βγ complex on pan T cells
Assay: cell-based or functional assay
Remark: another data set of the same source

| Average EC50, pSTAT5 assay in pan T cells, MMP2 cleaved molecule | Binder |
| --- | --- |
| 2.4 nM | CMP-136, MMP2 cleaved (ligand, not fully specified; as CMP-136 but cleavable peptide cut by MMP2 (macrocycle opened); cut site not given) APTSSSTKKTQLQLEHLLLDLQXILNGIENYKNPKLTRXLXYKFYXPKKATELKHLQCLEEELKPLEEVLXLAQSKNFHLRPRDLISNINVIVLELKGSETTFXCEYADETATIVEFLNRWITFSQSIISTLT |
